From doi:10.1101/2025.04.08.647683

How the values were obtained:
[1] = molecular target: T1, QuiR2;QuiR (Listeria monocytogenes EGD-e;Listeria monocytogenes EGD-e?) (UniProt Q8Y543+Q8Y9N7); test: EMSA
T1 sequence 1: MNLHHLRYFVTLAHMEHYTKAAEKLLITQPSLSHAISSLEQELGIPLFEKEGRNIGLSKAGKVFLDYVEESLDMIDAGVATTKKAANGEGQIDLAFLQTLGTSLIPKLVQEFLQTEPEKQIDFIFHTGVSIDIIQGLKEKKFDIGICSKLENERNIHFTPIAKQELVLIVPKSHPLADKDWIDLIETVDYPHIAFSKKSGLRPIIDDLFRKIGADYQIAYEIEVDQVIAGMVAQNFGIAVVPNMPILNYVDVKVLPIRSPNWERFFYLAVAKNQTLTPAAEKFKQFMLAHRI
T1 sequence 2: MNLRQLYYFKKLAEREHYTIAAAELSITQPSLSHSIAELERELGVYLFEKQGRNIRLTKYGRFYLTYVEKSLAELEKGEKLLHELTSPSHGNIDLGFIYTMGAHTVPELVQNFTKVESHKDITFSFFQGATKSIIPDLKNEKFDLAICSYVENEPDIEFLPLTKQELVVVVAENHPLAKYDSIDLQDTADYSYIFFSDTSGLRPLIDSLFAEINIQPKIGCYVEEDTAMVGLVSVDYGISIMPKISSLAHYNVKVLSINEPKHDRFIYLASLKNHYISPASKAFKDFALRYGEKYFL

[2] = molecular target: T2, QuiR2 (Listeria monocytogenes EGD-e) (UniProt Q8Y543); test: EMSA
T2 sequence: T1 sequence 1

CGCAAGTTCATCGGTTAACCTCCTCGGAATGCCTTGATAACTCTATTGTAAGCGATTGTATAGAAAAAATCTATGGATAAATCGAAAAATATACATTAGATTAATAATTATTCCTGACTTATAATGAAAGAGAAATAAGATTGTGCATTATTGAACGTGAATAATGTAACAAATCATTTGCTGAGATTATAGTCGCAGGAGGCTTATTATGACAGATTATCCGAG (double strand) [qui1 intergenic region probe (225 nt)]
binding [1]: binds
binding [2]: binds
